Assay results from IntAct's records for PubMed 28620713.

B1: Cytochrome P450 1B1 (Homo sapiens), Q16678 (parent)
chain: MGTSLSPNDPWPLNPLSIQQTTLLLLLSVLATVHVGQRLLRQRRRQLRSAPPGPFAWPLIGNAAAVGQAAHLSFARLARRYGDVFQIRLGSCPIVVLNGERAIHQALVQQGSAFADRPAFASFRVVSGGRSMAFGHYSEHWKVQRRAAHSMMRNFFTRQPRSRQVLEGHVLSEARELVALLVRGSADGAFLDPRPLTVVAVANVMSAVCFGCRYSHDDPEFRELLSHNEEFGRTVGAGSLVDVMPWLQYFPNPVRTVFREFEQLNRNFSNFILDKFLRHCESLRPGAAPRDMMDAFILSAEKKAAGDSHGGGARLDLENVPATITDIFGASQDTLSTALQWLLLLFTRYPDVQTRVQAELDQVVGRDRLPCMGDQPNLPYVLAFLYEAMRFSSFVPVTIPHATTANTSVLGYHIPKDTVVFVNQWSVNHDPLKWPNPENFDPARFLDKDGLINKDLTSRVMIFSVGKRRCIGEELSKMQLFLFISILAHQCDFRANPNEPAKMNFSYGLTIKPKSFKVNVTLRESMELLDSAVQNLQAKETCQ

Variants of: B1
Settings: with tie2_human TEK

Row | effect of a mutation on the interaction | Variant
1 | disrupting interaction strength | A115P
2 | decreasing interaction strength | R368H

Variants of: B1
Settings: with tie2_human TEK
Remark: another data set of the same source

Row | effect of a mutation on the interaction | Variant
3 | disrupting interaction strength | E229K

Variants of: B1
Settings: with tie2_human TEK
Remark: another data set of the same source

Row | effect of a mutation on the interaction | Variant
4 | with no effect | E229K
